# Reference: US20070286806A1, “Methods and Compositions for Modulating a Steroid Receptor” (Mount Sinai Hospital, priority 2004, published 2007)
# T1: PRA (Homo sapiens, UniProt P06401)
# T1 construct: expressed in transfected cells; host or cells: SHM (Syrian hamster myocyte) cells
# T1 sequence (P06401 1-769 isoform P06401-2): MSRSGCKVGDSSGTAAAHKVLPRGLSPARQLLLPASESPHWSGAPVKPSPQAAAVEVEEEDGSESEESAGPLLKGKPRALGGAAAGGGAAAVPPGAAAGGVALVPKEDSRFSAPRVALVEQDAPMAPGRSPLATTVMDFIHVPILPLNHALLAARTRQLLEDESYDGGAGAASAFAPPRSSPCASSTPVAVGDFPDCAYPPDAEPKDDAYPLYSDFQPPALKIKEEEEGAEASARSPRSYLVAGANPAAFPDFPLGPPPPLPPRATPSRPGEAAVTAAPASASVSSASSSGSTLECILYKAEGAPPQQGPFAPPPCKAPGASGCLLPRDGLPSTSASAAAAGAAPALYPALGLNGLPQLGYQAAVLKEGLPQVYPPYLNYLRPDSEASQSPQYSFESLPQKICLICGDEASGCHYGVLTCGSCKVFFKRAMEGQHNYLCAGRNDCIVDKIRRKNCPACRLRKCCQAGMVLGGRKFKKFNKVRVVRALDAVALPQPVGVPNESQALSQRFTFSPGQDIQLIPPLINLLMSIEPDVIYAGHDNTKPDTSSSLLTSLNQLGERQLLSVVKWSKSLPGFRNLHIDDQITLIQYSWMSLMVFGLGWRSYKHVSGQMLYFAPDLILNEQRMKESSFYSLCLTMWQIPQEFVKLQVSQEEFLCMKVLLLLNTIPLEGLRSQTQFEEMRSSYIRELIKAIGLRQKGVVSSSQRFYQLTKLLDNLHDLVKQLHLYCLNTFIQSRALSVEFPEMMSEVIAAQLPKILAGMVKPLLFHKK
# B1: polypyrimidine tract binding protein-associated splicing factor (protein)
# chain: MSRDRFRSRGGGGGGFHRRGGGGGRGGLHDFRSPPPGMGLNQNRGPMGPGPGQSGPKPPIPPPPPHQQQQQPPPQQPPPQQPPPHQPPPHPQPHQQQQPPPPPQDSSKPVVAQGPGPAPGVGSAPPASSSAPPATPPTSGAPPGSGPGPTPTPPPAVTSAPPGAPPPTPPSSGVPTTPPQAGGPPPPPAAVPGPGPGPKQGPGPGGPKGGKMPGGPKPGGGPGLSTPGGHPKPPHRGGGEPRGGRQHHPPYHQQHHQGPPPGGPGGRSEEKISDSEGFKANLSLLRRPGEKTYTQRCRLFVGNLPADITEDEFKRLFAKYGEPGEVFINKGKGFGFIKLESRALAEIAKAELDDTPMRGRQLRVRFATHAAALSVRNLSPYVSNELLEEAFSQFGPIERAVVIVDDRGRSTGKGIVEFASKPAARKAFERCSEGVFLLTTTPRPVIVEPLEQLDDEDGLPEKLAQKNPMYQKERETPPRFAQHGTFEYEYSQRWKSLDEMEKQQREQVEKNMKDAKDKLESEMEDAYHEHQANLLRQDLMRRQEELRRMEELHNQEMQKRKEMQLRQEEERRRREEEMMIRQREMEEQMRRQREESYSRMGYMDPRERDMRMGGGGAMNMGDPYGSGGQKFPPLGGGGGIGYEANPGVPPATMSGSMMGSDMRTERFGQGGAGPVGGQGPRGMGPGTPAGYGRGREEYEGPNKKPRF
# notes: expressed from transfected His-PSF vector or in vitro translated
# Molecular target: T1, PRA
# Assay: Transactivation of progesterone responsive promoters (3xPRE-Luc, MMTV-Luc) by PRA in SHM cells
# Assay type: cell-based
# Conditions: 10 nM progesterone, increasing dose of His-PSF vector
# Description: FIG. 4. PSF inhibit transactivation of PR but not estrogen receptor (ER). (A) SHM cells were transient cotransfected with PRA or PRB expression vectors with or without increasing dose (0.05, 0.1 and 0.2 μg) of His-PSF, together with 3×PRE (upper) or MMTV (lower) luciferase reporter vector. Four hours after transfection, culture medium was replaced with fresh DMEM containing 10 nM progesterone and the incubation continued for at least 30 hours. (B) SHM cells were transiently cotransfected with ERα or ERβ expression vector with (0.2 μg) or without His-PSF, together with 3×ERE luciferase reporter vector. Four hours after transfection, culture medium was replaced with fresh DMEM with (solid bar) or without (empty bar) 10 nM estrodial and incubation continued for at least 30 hours. Luciferase activity was measured and normalized by β-galatosidase activity. […]
# For immunoprecipitation of the endogenous PR and PSF, T47D cells cultured in 150 mm dishes were lysed in 800 μl NETN buffer containing 150 mM NaCl plus protease inhibitor cocktail. […] Gels were treated with Enhancer (NEN, Boston, US) dried and analyzed by autoradiography. • Cell culture and transient transfection: SHM cells and 293T cells were maintained in DMEM plus 5% FCS (Sigma) as described before (22). […] Luciferase activity was determined by using the luciferin reagent (Promega) according to manufacture's protocol. […]
molecule,measurement,value
B1,PRA transactivation of MMTV and 3xPRE promoters,potently inhibited
